Source: patent publication US6017692, “Methods of detecting a malignant cell in a biological sample comprising measuring Mxi gene expression alterations” (The General Hospital Corporation, dated 1994)

Columns and labels:
[1] = biological target: LexA-n-Myc-bHLH-Zip (Escherichia coli (strain K12); Homo sapiens (Human)); experiment: interaction trap (yeast two-hybrid), pJK103 LexAop-lacZ reporter, galactose (<2 on glucose); the text says that this bait does not interact
LexA-Id (human) = experiment: interaction trap (yeast two-hybrid), pJK103 LexAop-lacZ reporter, galactose
LexA-Hairy (Drosophila) = experiment: as above
[2] = biological target: LexA-Da (Escherichia coli (strain K12); Drosophila melanogaster (Fruit fly)) (UniProt P0A7C2); experiment: as above
LexA-Mxi1 (human) = experiment: interaction trap (yeast two-hybrid), pJK103 LexAop-lacZ reporter, galactose; the same value 10 stands on glucose, where tagged Mxi1 is not induced, and the filing reads this as no self-interaction
LexA-Max (human) = experiment: interaction trap (yeast two-hybrid), pJK103 LexAop-lacZ reporter, galactose (<2 on glucose)
LexA-cMyc-Cterm (human) = experiment: as above
[3] = biological target: c-Myc bHLH-Zip (amino acids 342-439) (human, UniProt P01106); experiment: gel retardation with an oligonucleotide holding the CACGTG site
Protocol: (§1) Gel retardation DNA binding assays were performed essentially as described in Papoulas et al., (J. Biol. Chem. 267:10470–10480, 1992). Purified Max and c-Myc bHLH-Zip (which contained residues 342–439 of human c-Myc) were made from recombinant *E. coli* by standard techniques. GST-Mxi1 was made as follows: a fragment that contained the entire coding sequence of Mxi1 was amplified using polymerase chain reaction, subcloned into pGEX-2T (Pharmacia), and transformed into DH5α cells. The fusion protein was induced and isolated as described (Smith and Corcoran, *Current Protocols in Molecular Biology*, Ausubel et al., eds., Greene Publishing and Wiley-Interscience, New York, 1989). A double-stranded oligonucleotide, 5'-[…]-3' (SEQ ID NO: 9), that contained the CACGTG (SEQ ID NO: 10) consensus site was used. Approximately 0.5 μg of oligonucleotide was end labeled with [γ-^32P] ATP. Binding assays contained the indicated concentrations of purified Max, c-Myc bHLH-Zip, GST-Mxi1, and 0.5 ng of the labeled DNA probe. […]

Max (151 residue form) = Max (151 residue form) (Homo sapiens, UniProt P61244-2 P61244-2:1-151); experiment: EMSA; complex b, 10 ng Max; 10 mM Tris pH 7.4, 80 mM NaCl, room temperature; settings: tags: none stated; E. coli; chain copies: 2 (inferred); label: 32P 5' end
Protocol: as §1

Sequence of LexA-Da (Escherichia coli (strain K12); Drosophila melanogaster (Fruit fly)) (P0A7C2 1-202, tags or fused parts left off): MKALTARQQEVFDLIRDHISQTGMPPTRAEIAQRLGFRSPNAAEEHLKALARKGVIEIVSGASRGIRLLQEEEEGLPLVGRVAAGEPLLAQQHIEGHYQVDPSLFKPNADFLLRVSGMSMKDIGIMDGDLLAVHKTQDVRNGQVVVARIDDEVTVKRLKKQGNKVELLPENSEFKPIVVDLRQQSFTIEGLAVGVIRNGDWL
Sequence of LexA-n-Myc-bHLH-Zip (Escherichia coli (strain K12); Homo sapiens (Human)) (P0A7C2 1-202, tags or fused parts left off): as above
Sequence of Max (151 residue form) (P61244 other isoform, or with tags, fused parts or gaps): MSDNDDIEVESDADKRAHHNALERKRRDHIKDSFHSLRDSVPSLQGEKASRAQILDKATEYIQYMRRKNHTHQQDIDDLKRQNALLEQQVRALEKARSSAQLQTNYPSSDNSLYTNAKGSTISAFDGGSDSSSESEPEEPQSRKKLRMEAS
Sequence of LexA-Hairy (Drosophila) (P0A7C2 other isoform, or with tags, fused parts or gaps): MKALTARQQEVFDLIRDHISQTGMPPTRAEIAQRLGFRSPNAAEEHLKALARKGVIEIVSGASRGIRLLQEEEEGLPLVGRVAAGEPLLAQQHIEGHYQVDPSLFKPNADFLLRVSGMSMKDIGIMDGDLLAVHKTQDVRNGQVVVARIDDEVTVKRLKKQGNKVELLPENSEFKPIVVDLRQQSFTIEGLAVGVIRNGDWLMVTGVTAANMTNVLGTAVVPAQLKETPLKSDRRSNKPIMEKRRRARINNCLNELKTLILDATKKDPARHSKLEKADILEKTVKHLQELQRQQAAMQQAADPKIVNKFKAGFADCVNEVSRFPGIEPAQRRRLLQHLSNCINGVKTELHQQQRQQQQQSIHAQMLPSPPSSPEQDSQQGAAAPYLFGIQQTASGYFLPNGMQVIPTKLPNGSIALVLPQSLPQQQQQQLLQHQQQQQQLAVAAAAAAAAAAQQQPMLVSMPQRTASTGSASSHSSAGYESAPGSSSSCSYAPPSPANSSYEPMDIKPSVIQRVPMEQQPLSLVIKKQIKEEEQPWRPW
Sequence of LexA-Id (human) (P0A7C2 other isoform, or with tags, fused parts or gaps): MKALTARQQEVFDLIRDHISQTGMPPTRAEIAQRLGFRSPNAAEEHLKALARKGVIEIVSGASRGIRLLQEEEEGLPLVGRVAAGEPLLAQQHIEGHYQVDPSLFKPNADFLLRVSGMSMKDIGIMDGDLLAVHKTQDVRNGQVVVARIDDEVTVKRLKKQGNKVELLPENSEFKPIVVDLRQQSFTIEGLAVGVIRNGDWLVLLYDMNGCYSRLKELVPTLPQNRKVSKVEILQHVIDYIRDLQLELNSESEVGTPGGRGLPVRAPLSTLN

B1: tagged Mxi1 (the invariant activation-tagged moiety of pJG4-5 fused to Mxi1 residues 10-220) (protein)
chain: PPKKKRKVAYPYDVPDYAKPPRRLSRAQKHSSGTSNTSTANRSTHNELEKNRRAHLRLCLERLKVLIPLGPDCTRHTTLGLLNKAKAHIKKLEEAERKSQHQLENLEREQRFLKWRLEQLQGPQEMERIRMDSIGSTISSDRSDSEREEIEVDVESTEFSHGEVDNISTTSISDIDDHSSLPSIGSDEGYSSASVKLSFTSYRTQHDITVQGKIFTGPIQYKQSLKLGS
β-galactosidase (galactose) [1]: 8
β-galactosidase (galactose) (LexA-Id (human)): < 2
β-galactosidase (galactose) (LexA-Hairy (Drosophila)): < 2
β-galactosidase (galactose) [2]: < 2
β-galactosidase (galactose) (LexA-Mxi1 (human)): 10
β-galactosidase (galactose) (LexA-Max (human)): 120
β-galactosidase (galactose) (LexA-cMyc-Cterm (human)): 10

B2: glutathione S-transferase (GST)-Mxi1 1-220 (other)
chain: MPSPRLQHSKPPRRLSRAQKHSSGTSNTSTANRSTHNELEKNRRAHLRLCLERLKVLIPLGPDCTRHTTLGLLNKAKAHIKKLEEAERKSQHQLENLEREQRFLKWRLEQLQGPQEMERIRMDSIGSTISSDRSDSEREEIEVDVESTEFSHGEVDNISTTSISDIDDHSSLPSIGSDEGYSSASVKLSFTSYRTQHDITVQGKIFTGPIQYKQSLKLGS
binding result [3]: no binding

B3: Myc-Max consensus site oligonucleotide (dsDNA)
DNA 1: GGAAGCAGACCACGTGGTCTGCTTCC
DNA 2: GGAAGCAGACCACGTGGTCTGCTTCC
binding result (Max (151 residue form)): binds
